The data set relates to Escherichia coli TOP10. Kind of data set: shrunken log2 fold change of peptide-encoding DNA abundance (4.5 h post-induction vs induction); higher = less antimicrobial activity (less host growth inhibition). To be noted: time post-induction: 4.5 h; library: site-saturation at positions 5, 18, 19, 20.
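Further: peptides expressed intracellularly from a pBAD plasmid library in pooled LB shake-flask culture, induced with 0.3% L-arabinose, DNA abundance read by NGS, three biological replicates, DESeq2 with apeglm shrinkage.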

Turning to RRIRDRPPRLPRPRPRPNDLPRP, the “shrunken log2 fold change” value came to 0.124.
Turning to RRIRSRPPRLPRPRPRPFPAPRP, the “shrunken log2 fold change” value is 0.0186.
With RRIRMRPPRLPRPRPRPDAGPRP, the “shrunken log2 fold change” value was determined as 1.12.
For the sequence RRIRPRPPRLPRPRPRPDWYPRP, the “shrunken log2 fold change” value is -0.213.
On to RRIRRRPPRLPRPRPRPYAVPRP, for which the “shrunken log2 fold change” value is -0.191.
On to RRIRSRPPRLPRPRPRPHHQPRP, for which the “shrunken log2 fold change” value is -0.61.
For RRIRMRPPRLPRPRPRPFWLPRP, the “shrunken log2 fold change” value was -0.179.
Regarding RRIRGRPPRLPRPRPRPQPYPRP, the “shrunken log2 fold change” value was -0.0844.
Regarding RRIRQRPPRLPRPRPRPNRLPRP, the “shrunken log2 fold change” value worked out at 0.0179.
With RRIRMRPPRLPRPRPRPNTQPRP, the “shrunken log2 fold change” value was found to be 0.0014.
RRIRRRPPRLPRPRPRPAGLPRP: the “shrunken log2 fold change” value was found to be 0.153.
Turning to RRIRFRPPRLPRPRPRPVPTPRP, the “shrunken log2 fold change” value came out at 0.113.
Regarding RRIRQRPPRLPRPRPRPRWMPRP, the “shrunken log2 fold change” value was determined as 0.0157.
For RRIRRRPPRLPRPRPRPFNYPRP, the “shrunken log2 fold change” value was -0.0716.
For the sequence RRIRLRPPRLPRPRPRPFFHPRP, the “shrunken log2 fold change” value was -0.37.
As to RRIRGRPPRLPRPRPRPPTVPRP, the “shrunken log2 fold change” value worked out at 1.12.
As to RRIRPRPPRLPRPRPRPWQDPRP, the “shrunken log2 fold change” value amounted to 0.115.
In the case of RRIRTRPPRLPRPRPRPFHPPRP, the “shrunken log2 fold change” value was -0.335.
Regarding RRIRHRPPRLPRPRPRPPQFPRP, the “shrunken log2 fold change” value worked out at 0.0105.
Consider RRIRMRPPRLPRPRPRPFRNPRP, for which the “shrunken log2 fold change” value is -0.0431.
As for RRIRTRPPRLPRPRPRPHHWPRP, the “shrunken log2 fold change” value was -0.0973.
For RRIRARPPRLPRPRPRPKDRPRP, the “shrunken log2 fold change” value came to 0.145.
As to RRIRWRPPRLPRPRPRPFYTPRP, the “shrunken log2 fold change” value is -0.575.
The value for RRIRGRPPRLPRPRPRPKHKPRP was 0.448; that for RRIRYRPPRLPRPRPRPVDHPRP was -0.328.
As for RRIRGRPPRLPRPRPRPSGQPRP, the “shrunken log2 fold change” value was determined as 0.538.
The value for RRIRIRPPRLPRPRPRPQPQPRP was 0.0386; that for RRIRARPPRLPRPRPRPAPQPRP was 0.932.
Take RRIRERPPRLPRPRPRPDIYPRP: the “shrunken log2 fold change” value was 0.137.
Take RRIRVRPPRLPRPRPRPRFRPRP: the “shrunken log2 fold change” value came out at 0.193.
As to RRIRCRPPRLPRPRPRPPAVPRP, the “shrunken log2 fold change” value was 0.645.
Take RRIRARPPRLPRPRPRPFLCPRP: the “shrunken log2 fold change” value was determined as 0.0599.
As to RRIRWRPPRLPRPRPRPASAPRP, the “shrunken log2 fold change” value amounted to 0.298.
Consider RRIRTRPPRLPRPRPRPVQDPRP, for which the “shrunken log2 fold change” value was -0.00469.
Consider RRIRVRPPRLPRPRPRPTIQPRP, for which the “shrunken log2 fold change” value is -0.526.
Turning to RRIRGRPPRLPRPRPRPHEAPRP, the “shrunken log2 fold change” value is -0.000398.
For RRIRFRPPRLPRPRPRPLFYPRP, the “shrunken log2 fold change” value is -0.0429.
As to RRIRHRPPRLPRPRPRPSTSPRP, the “shrunken log2 fold change” value is -0.478.
As for RRIRDRPPRLPRPRPRPMFSPRP, the “shrunken log2 fold change” value is -0.142.
In the case of RRIRIRPPRLPRPRPRPGPTPRP, the “shrunken log2 fold change” value came to 0.175.
Take RRIRERPPRLPRPRPRPWERPRP: the “shrunken log2 fold change” value stood at 0.0496.
Take RRIRKRPPRLPRPRPRPIYDPRP: the “shrunken log2 fold change” value is -0.0349.
On to RRIRKRPPRLPRPRPRPAHNPRP, for which the “shrunken log2 fold change” value is 0.473.
As for RRIRHRPPRLPRPRPRPDRTPRP, the “shrunken log2 fold change” value worked out at 0.0869.
For RRIRMRPPRLPRPRPRPSHKPRP, the “shrunken log2 fold change” value is -0.183.
Consider RRIRNRPPRLPRPRPRPGQSPRP, for which the “shrunken log2 fold change” value amounted to 0.108.
For RRIRTRPPRLPRPRPRPIQRPRP, the “shrunken log2 fold change” value came to 0.0582.
Regarding RRIRVRPPRLPRPRPRPTSRPRP, the “shrunken log2 fold change” value is -0.139.
As to RRIRTRPPRLPRPRPRPIMKPRP, the “shrunken log2 fold change” value was -0.253.
For RRIRMRPPRLPRPRPRPFGPPRP, the “shrunken log2 fold change” value is -0.159.
Turning to RRIRLRPPRLPRPRPRPPSRPRP, the “shrunken log2 fold change” value is 0.175.
On to RRIRPRPPRLPRPRPRPHQMPRP, for which the “shrunken log2 fold change” value was found to be 0.0123.
The value for RRIRWRPPRLPRPRPRPWSIPRP was -0.46; that for RRIRRRPPRLPRPRPRPYNRPRP was -0.276; that for RRIRGRPPRLPRPRPRPPKVPRP was 0.762.
Under RRIRVRPPRLPRPRPRPGLCPRP stands 0.0795.
Consider RRIRTRPPRLPRPRPRPQCHPRP, for which the “shrunken log2 fold change” value is -0.0436.
The value for RRIRGRPPRLPRPRPRPTWPPRP was 0.52.
As for RRIRARPPRLPRPRPRPVDAPRP, the “shrunken log2 fold change” value is 1.28.
In the case of RRIRERPPRLPRPRPRPMSPPRP, the “shrunken log2 fold change” value was -0.0381.
Under RRIRIRPPRLPRPRPRPAAKPRP stands 0.463; under RRIRWRPPRLPRPRPRPDVHPRP, -0.0103; under RRIRPRPPRLPRPRPRPWPMPRP, -0.151.
In the case of RRIRERPPRLPRPRPRPPHLPRP, the “shrunken log2 fold change” value was -0.0668.
RRIRARPPRLPRPRPRPEFLPRP: the “shrunken log2 fold change” value is 0.465.
The value for RRIRCRPPRLPRPRPRPSLDPRP was -0.203.
On to RRIRQRPPRLPRPRPRPQQKPRP, for which the “shrunken log2 fold change” value was -0.023.
The value for RRIRGRPPRLPRPRPRPNDIPRP was -0.528; that for RRIRQRPPRLPRPRPRPVLSPRP was -0.0147; that for RRIRMRPPRLPRPRPRPPGMPRP was 1.08.
The value for RRIRYRPPRLPRPRPRPNQDPRP was -0.406.
Consider RRIRTRPPRLPRPRPRPFKGPRP, for which the “shrunken log2 fold change” value is -0.264.
Under RRIRARPPRLPRPRPRPIYAPRP stands 0.144; under RRIRVRPPRLPRPRPRPWMGPRP, -0.339; under RRIRYRPPRLPRPRPRPAWEPRP, 1.86.
For RRIRVRPPRLPRPRPRPNWWPRP, the “shrunken log2 fold change” value came to 0.175.
Regarding RRIRGRPPRLPRPRPRPSAFPRP, the “shrunken log2 fold change” value stood at 1.1.
On to RRIRIRPPRLPRPRPRPIFWPRP, for which the “shrunken log2 fold change” value came out at 0.397.
Consider RRIRQRPPRLPRPRPRPCRVPRP, for which the “shrunken log2 fold change” value is -0.306.
As for RRIRNRPPRLPRPRPRPACTPRP, the “shrunken log2 fold change” value was -0.0652.
Under RRIRGRPPRLPRPRPRPMGRPRP stands 0.28; under RRIRVRPPRLPRPRPRPIHIPRP, -1.11; under RRIRHRPPRLPRPRPRPWKWPRP, -0.00968.
On to RRIRLRPPRLPRPRPRPYMDPRP, for which the “shrunken log2 fold change” value was -0.0681.
Take RRIRMRPPRLPRPRPRPQTEPRP: the “shrunken log2 fold change” value amounted to 0.12.
Consider RRIRFRPPRLPRPRPRPNVAPRP, for which the “shrunken log2 fold change” value was found to be 0.365.
In the case of RRIRERPPRLPRPRPRPPNLPRP, the “shrunken log2 fold change” value amounted to 0.0423.
Consider RRIRSRPPRLPRPRPRPCSTPRP, for which the “shrunken log2 fold change” value was found to be 0.129.
As for RRIRMRPPRLPRPRPRPKQLPRP, the “shrunken log2 fold change” value is 0.83.
With RRIRERPPRLPRPRPRPENHPRP, the “shrunken log2 fold change” value is -0.455.
Regarding RRIRDRPPRLPRPRPRPKCPPRP, the “shrunken log2 fold change” value turned out to be 0.149.
As for RRIRQRPPRLPRPRPRPRRNPRP, the “shrunken log2 fold change” value was 0.327.
In the case of RRIRERPPRLPRPRPRPYDWPRP, the “shrunken log2 fold change” value is -0.0444.
As for RRIRDRPPRLPRPRPRPHQTPRP, the “shrunken log2 fold change” value came out at 0.0267.
Under RRIRPRPPRLPRPRPRPCFTPRP stands -0.307.
As to RRIRNRPPRLPRPRPRPCTTPRP, the “shrunken log2 fold change” value was -0.213.
As to RRIRMRPPRLPRPRPRPFEHPRP, the “shrunken log2 fold change” value was -0.327.
For RRIRMRPPRLPRPRPRPFDHPRP, the “shrunken log2 fold change” value was -0.00544.
Take RRIRGRPPRLPRPRPRPETCPRP: the “shrunken log2 fold change” value was found to be 0.613.
Under RRIRNRPPRLPRPRPRPGIWPRP stands 0.0115; under RRIRMRPPRLPRPRPRPGNDPRP, 1.19.
Regarding RRIRVRPPRLPRPRPRPYAQPRP, the “shrunken log2 fold change” value was 0.0393.
As for RRIRQRPPRLPRPRPRPHSCPRP, the “shrunken log2 fold change” value was -0.194.
With RRIRLRPPRLPRPRPRPFKSPRP, the “shrunken log2 fold change” value was -0.209.
Turning to RRIRIRPPRLPRPRPRPPTNPRP, the “shrunken log2 fold change” value came to 0.0455.
RRIRFRPPRLPRPRPRPPEDPRP: the “shrunken log2 fold change” value came to 0.357.
Consider RRIRIRPPRLPRPRPRPARIPRP, for which the “shrunken log2 fold change” value was -0.0826.
For the sequence RRIRIRPPRLPRPRPRPTKVPRP, the “shrunken log2 fold change” value was -0.257.
RRIRFRPPRLPRPRPRPCHHPRP: the “shrunken log2 fold change” value is -0.0196.
For RRIRSRPPRLPRPRPRPYICPRP, the “shrunken log2 fold change” value is -0.959.
As to RRIRMRPPRLPRPRPRPDQQPRP, the “shrunken log2 fold change” value is -0.0225.
RRIRSRPPRLPRPRPRPHTIPRP: the “shrunken log2 fold change” value was -0.87.
As to RRIRARPPRLPRPRPRPIKVPRP, the “shrunken log2 fold change” value was -0.104.
For RRIRGRPPRLPRPRPRPWKSPRP, the “shrunken log2 fold change” value is -0.207.
As for RRIRPRPPRLPRPRPRPKTYPRP, the “shrunken log2 fold change” value was -0.451.
The value for RRIRVRPPRLPRPRPRPDLHPRP was -0.0023; that for RRIRVRPPRLPRPRPRPRSMPRP was -0.123; that for RRIRTRPPRLPRPRPRPKMGPRP was -0.0141.
On to RRIRVRPPRLPRPRPRPMVLPRP, for which the “shrunken log2 fold change” value was -0.19.
Turning to RRIRWRPPRLPRPRPRPGLIPRP, the “shrunken log2 fold change” value was determined as 0.336.
In the case of RRIRTRPPRLPRPRPRPWEPPRP, the “shrunken log2 fold change” value was -0.0542.
The value for RRIRQRPPRLPRPRPRPSHAPRP was -0.107.
Turning to RRIRMRPPRLPRPRPRPLPLPRP, the “shrunken log2 fold change” value was 0.718.
With RRIRGRPPRLPRPRPRPHTRPRP, the “shrunken log2 fold change” value was found to be 0.559.
Take RRIRFRPPRLPRPRPRPGRMPRP: the “shrunken log2 fold change” value is 0.0574.

Values taken from the supplement of paper PMC9112550, “Optimization of the antimicrobial peptide Bac7 by deep mutational scanning” (BMC Biology, 2022).
